# Results taken from patent US20230348603A1 (VERSEAU THERAPEUTICS, published 2023).
# Positions count from the first letter of the chain named. Names and notes keep the numbering of the source.
# B1: h13H11.C humanized IgG4 (S228P) kappa (antibody, V domains shown)
# VH: QIQLVQSGSELKKPGASVKVSCKASGYTFENFGMNWVRQAPGQGLEWMGWINTYTGEATYADGFTGRFVFSLDTSVSTAYLQISSLKAEDTAVYYCARDGGFRHFDVWGQGTTVTVSS
# VL: DTQVTQSPSSLSASVGDRVTITCQTSTDIDDDMNWYQQKPGKAPKLLISEGNTLRTGVPSRFSSSGSGTDFTFTISSLQPEDIATYYCLQSDNLPLTFGGGTKLEIKR
# B2: h13H11.B humanized IgG4 (S228P) kappa (antibody, V domains shown)
# VH: QIQLVQSGAEVKKPGASVKVSCKASGYTFENFGMNWVRQAPGQRLEWMGWINTYTGEATYADKFQGRVTFTLDTSASTAYMELSSLRSEDTAVYFCARDGGFRHFDVWGQGTTVTVSS
# VL: B1 VL with D1E, T56P, S67Y
# B3: h13H11.D humanized IgG4 (S228P) kappa (antibody, V domains shown)
# VH: B1 VH
# VL: B1 VL with D30S, D31N, D32Y, T56P
# B4: h13H11.H humanized IgG4 (S228P) kappa (antibody, V domains shown)
# VH: B1 VH with G63D, T65K
# VL: B1 VL with D30S, D31N, D32Y, T56P
# B5: h13H11.E humanized IgG4 (S228P) kappa (antibody, V domains shown)
# VH: B2 VH with F70I, F95Y
# VL: B1 VL with D30S, D31N, D32Y, T56P
# B6: h13H11.A humanized IgG4 (S228P) kappa (antibody, V domains shown)
# VH: B1 VH
# VL: B1 VL with D1E, T56P, S67Y
# B7: h13H11.F humanized IgG4 (S228P) kappa (antibody, V domains shown)
# VH: B1 VH with G63D, T65K
# VL: B1 VL with D1E, T56P, S67Y
# B8: h13H11.G humanized IgG4 (S228P) kappa (antibody, V domains shown)
# VH: B1 VH with G63D, T65K
# VL: B1 VL
# B9: h14D12.A humanized IgG4 (S228P) kappa (antibody, V domains shown)
# VH: QIQLVQSGSELKKPGASVKVSCKASGYTFTNYGMNWVRQAPGQGLEWMGLINTYTGEPTYADGFTGRFVFSLDTSASTAYLQISSLKAEDTAVYFCARERIYGYLHYFDYWGQGTTVTVSS
# VL: DVVMTQSPDSLAVSLGERATINCKASQSVDYDGDSYMNWYQQKPGQPPKLLIYAASNLESGVPDRFSGSGSGTDFTLTISSLQAEDVAVYYCQQSNEDPRTFGGGTKLEIKR
# B10: h14D12.B humanized IgG4 (S228P) kappa (antibody, V domains shown)
# VH: QIQLVQSGAEVKKPGASVKVSCKASGYTFTNYGMNWVRQAPGQGLEWMGLINTYTGEPTYADKFQGRVTMTLDTSTSTAYMELSSLRSEDTAVYYCARERIYGYLHYFDYWGQGTTVTVSS
# VL: B9 VL
# B11: h14D12.C humanized IgG4 (S228P) kappa (antibody, V domains shown)
# VH: B10 VH with M70F, T76A, Y95F
# VL: B9 VL with L58R
# B12: h12A12.E humanized IgG4 (S228P) kappa (antibody, V domains shown)
# VH: QVQMVQSGAEVKKPGASVKVSCKASGYTFTNYWMHWVRQAPGQGLEWMGYINPSTGYTDYNQKFQGRVTMTADKSTSTAYMELSSLRSEDTAVYYCIRGSDYYGRDYWGQGTTVTVSS
# VL: DIQMTQSPSSLSASVGDRVTITCQASQDISNYLNWYQQKPGKAPKLLIYYTSRLHSGVPSRFSGSGSGTDYTFTISSLQPEDIATYYCRQGNTLPWTFGGGTKLEIKR
# B13: h12A12.F humanized IgG4 (S228P) kappa (antibody, V domains shown)
# VH: QVQMVQSGSELKKPGASVKVSCKASGYTFTNYWMHWVRQAPGQGLEWIGYINPSTGYTDYNQGFTGRFVLSADKSSSTAYLQISSLKAEDTAVYYCIRGSDYYGRDYWGQGTTVTVSS
# VL: B12 VL
# B14: h12A12.C humanized IgG4 (S228P) kappa (antibody, V domains shown)
# VH: B13 VH
# VL: B12 VL with P44L, S56T
# B15: h12A12.G humanized IgG4 (S228P) kappa (antibody, V domains shown)
# VH: B12 VH with M4L, K74T, A79V
# VL: B12 VL
# B16: h12A12.B humanized IgG4 (S228P) kappa (antibody, V domains shown)
# VH: B12 VH
# VL: B12 VL with P44L, S56T
# B17: h12A12.H humanized IgG4 (S228P) kappa (antibody, V domains shown)
# VH: B13 VH with M4L, I48M, L70F, K74T, S76V
# VL: B12 VL
# B18: h12A12.A humanized IgG4 (S228P) kappa (antibody, V domains shown)
# VH: B12 VH
# VL: B12 VL with P44L, Y87F
# B19: h14C05.B humanized IgG4 (S228P) kappa (antibody, V domains shown)
# VH: QVQLVQSGSELKKPGASVKVSCKASGYTFTNYGMNWVRQAPGQGLEWMGSINTYTGEATYADGFTGRFVFSLDTSVNTAYLQISSLKAEDTAVYYCARGDYYGRGTWFAYWGQGTLVTVSS
# VL: ETQVTQSPSSLSASVGDRVTITCRASQDVSTAVAWYQQKPGKAPKLLIYSASYRYPGVPSRFSGSGSGTDFTLTISSLQPEDFATYYCQQDYSSPWTFGGGTKLEIKR
# B20: h14C05.D humanized IgG4 (S228P) kappa (antibody, V domains shown)
# VH: B19 VH
# VL: ETVVTQSPATLSLSPGERATLSCRASQDVSTAVAWYQQKPGQAPRLLIYSASYRYPGIPARFSGSGSGTDFTLTISSLEPEDFAVYYCQQDYSSPWTFGGGTKLEIKR
# B21: h14C05.C humanized IgG4 (S228P) kappa (antibody, V domains shown)
# VH: QVQLVQSGAEVKKPGASVKVSCKASGYTFTNYGMNWVRQAPGQGLEWMGSINTYTGEATYADKFQGRVTMTLDTSTNTAYMELSSLRSEDTAVYYCARGDYYGRGTWFAYWGQGTLVTVSS
# VL: B19 VL
# B22: h14C05.A humanized IgG4 (S228P) kappa (antibody, V domains shown)
# VH: B19 VH with Q1E, Q3M, V76A, Y95F
# VL: B19 VL
# B23: h14C05.G humanized IgG4 (S228P) kappa (antibody, V domains shown)
# VH: B19 VH with D62Q, N77S
# VL: B19 VL
# B24: h14C05.H humanized IgG4 (S228P) kappa (antibody, V domains shown)
# VH: B21 VH with D62Q, N77S, A79V
# VL: B19 VL
# B25: h14C05.F humanized IgG4 (S228P) kappa (antibody, V domains shown)
# VH: B19 VH with G63D, T65K
# VL: B19 VL
# B26: h12A12.D humanized IgG4 (S228P) kappa (antibody, V domains shown)
# VH: B13 VH with I48M, L70F, S76V
# VL: EIVMTQSPATLSLSPGERATLSCRASQDISNYLNWYQQKPGQALRLLIYYTSRRHTGIPARFSGSGSGTDYTLTISSLEPEDFAVYYCRQGNTLPWTFGGGTKLEIKR
# B27: h14C05.E humanized IgG4 (S228P) kappa (antibody, V domains shown)
# VH: B21 VH
# VL: B20 VL
# Target: T1, Cynomolgus Monkey VSIG4-L-His (cynomolgus monkey)
# T1 construct: ECD with His tag; also called cyVSIG4-L; cyno VSIG4-L-His
# T1 chain: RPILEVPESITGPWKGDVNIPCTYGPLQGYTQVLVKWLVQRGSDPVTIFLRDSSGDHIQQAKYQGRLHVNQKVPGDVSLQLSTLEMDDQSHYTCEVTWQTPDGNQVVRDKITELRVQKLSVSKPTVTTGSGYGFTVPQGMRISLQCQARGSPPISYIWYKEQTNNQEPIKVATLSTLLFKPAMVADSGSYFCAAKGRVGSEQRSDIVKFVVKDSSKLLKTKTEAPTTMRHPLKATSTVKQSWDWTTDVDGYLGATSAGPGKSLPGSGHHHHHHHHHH
# Experiment: BLI, IgG on AHC sensor, antigen 100 nM
row,Binder,KD relative to parental chimera [fold]
1,B1,3.7
2,B2,0.9
3,B3,1.7
4,B4,0.9
5,B5,1.1
6,B6,1
7,B7,1.1
8,B8,0.9
9,B9,1.2
10,B10,1.3
11,B11,1.5
12,B12,0.6
13,B13,0.4
14,B14,0.5
15,B15,1.1
16,B16,0.7
17,B17,1
18,B18,1
19,B19,0.7
20,B20,0.5
21,B21,0.6
22,B22,0.7
23,B23,0.7
24,B24,0.9
25,B25,0.7
26,B26,1.2
27,B27,0.3

# Target: T2, Human VSIG4-L-His (human, UniProt Q9Y279 20-283)
# T2 construct: long isoform ECD with His tag; also called hVSIG4-L
# T2 sequence: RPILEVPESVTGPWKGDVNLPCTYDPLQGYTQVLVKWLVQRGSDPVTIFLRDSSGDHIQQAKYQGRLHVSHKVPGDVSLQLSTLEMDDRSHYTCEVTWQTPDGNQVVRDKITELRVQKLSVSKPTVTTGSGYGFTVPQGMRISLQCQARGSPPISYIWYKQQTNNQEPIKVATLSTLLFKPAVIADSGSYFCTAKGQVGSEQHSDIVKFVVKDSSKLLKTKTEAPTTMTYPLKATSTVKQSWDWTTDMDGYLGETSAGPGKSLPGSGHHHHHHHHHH
# Experiment: BLI, IgG on AHC sensor, antigen 100 nM
row,Binder,KD relative to parental chimera [fold]
1,B1,1.2
2,B2,2.5
3,B3,0.8
4,B5,1.4
5,B6,2.6
6,B7,1.8
7,B8,1.2
8,B9,1.1
9,B10,1
10,B11,1.4
11,B12,0.6
12,B13,0.4
13,B14,0.5
14,B15,0.7
15,B16,0.6
16,B17,0.8
17,B18,0.7
18,B19,0.7
19,B20,0.6
20,B21,0.6
21,B22,0.8
22,B23,0.8
23,B24,1
24,B25,0.6
25,B26,1.1
26,B27,0.5
